“Also recorded” adds a separate entry of the source. Each block holds one molecule with its values, some of them ahead of it.
Experiments:
[1] = system: GST-Nogo-induced growth cone collapse; assay: Blockade of Nogo-induced growth cone collapse in chick DRG cultures; format: cell-based; details: GST-Nogo / Nogo-66 as collapsing agent
Experimental: For all experiments involving cell culture, the following methods were employed. The culture of embryonic chick E10 and E12 dorsal root ganglion explants and dissociated neurons utilized methods described for E7 dorsal root ganglion cultures (Takahashi et al., (1998) Nature Neurosci. 1, 487-493; Takahashi et al., (1999) Cell 99, 59-69; Goshima et al., (1995) Nature 376, 509-514; Jin & Strittmatter, (1997) J. Neurosci. […]). NGF-differentiated PC12 cells were cultured as described (Strittmatter et al., (1994) J. Neurosci. 14, 2327-2338). Embryonic spinal cord explants (rat E10 or chick E5) were cultured for 7-14 days in the presence of PDGF-AA to induce differentiation of some cells into mature oligodendrocytes (Vartanian et al., (1999) Proc. Natl. Acad. Sci. USA 96, 731-735). The procedure for growth cone collapse assays is identical to that for analysis of Sema3A-induced growth cone collapse (Takahashi et al., (1998) Nature Neurosci. 1, 487-493; Takahashi et al., (1999) Cell 99, 59-69; Goshima et al., (1995) Nature 376, 509-514; Jin & Strittmatter, (1997) J. Neurosci. 17, 6256-6263). The method for analysis of total neurite outgrowth has also been described (Goshima et al., (1995) Nature 376, 509-514; Jin & Strittmatter, (1997) J. Neurosci. 17, 6256-6263; Strittmatter et al., (1994) J. Neurosci. 14, 2327-2338). In outgrowth assays, proteins and peptides were added one hour after plating to minimize any effect on the total number of adherent cells. To test the effect of substrate-bound GST or GST-Nogo, the protein solutions were dried on poly-L-lysine coated glass, washed and then coated with laminin. For E12 cultures, the neuronal identity of cells was verified by staining with anti-neurofilament antibodies (2H3, Develomental Studies Hybridoma Bank) and neurites were traced by observation of rhodamine-phalloidin staining of F-actin in processes.
In the growth cone collapse assay, the response to Nogo was measured in the presence of various potential antagonistic peptides. […] This blockade supports the hypothesis that Nogo is a primary inhibitory component of CNS myelin.
For further testing, a synthetic peptide containing amino acid residues #1055-1094 of hNgR, acetylated at the […] was used [hereinafter “Peptide 140”]. […] Antagonist of Nogo-66 inhibitory activity may act by competing for, and thereby blocking NgR binding sites. To determine the antagonistic activity of Peptide 140, the above synthetic form of the peptide was added to E12 chick DRG explant cultures approximately 10 min before application of various concentrations of GST-NogoA (residues #1055-1120), TPA or Sema3A. 30 min later, cultures were fixed and growth cone collapse was assessed following staining with rhodamine-phalloidin.

[2] = target: chick E12 dorsal root ganglion neurons; assay: AP-Nogo binding to chick dorsal root ganglion neurons
Excerpt: (a) is a photograph of a gel and an immunoblot where the His-AP-Nogo (66 amino acid) protein was expressed in HEK293T cells, and purified from conditioned medium on a Nickel-containing resin via the His tag. Purified protein was subjected to SDS-PAGE and stained for total protein with CBB or immunoblotted with anti-Nogo antibodies (anti-Nogo). Molecular weight markers of 200, 116, 97, 65 and 45 kDa are shown at left, and the migration of AP-Nogo at right. (b) is a photograph of dissociated chick E12 dorsal root ganglion neurons that were incubated with 10 nM AP-Nogo or 10 nM AP-Nogo+160 nM GST-Nogo for sixty minutes at 23° C. The cells were washed, fixed and incubated at 60° C. in order to inactivate endogenous AP. Bound AP-Nogo was detected by incubation with nitro blue tetrazolium. Note the intense neuronal staining by AP-Nogo that is displaced by unlabeled ligand. (c) is a graph displaying experimental data where the potency of AP-Nogo and GST-Nogo in E12 chick dorsal root ganglion growth cone collapse assays was assessed as described in the Example section. The EC50 of AP-Nogo was determined to be 1 nM or less. The means±s.e.m. calculated from five to eight determinations are illustrated. (d) is a graph displaying experimental data where the binding of 10 nM AP-Nogo to chick E12 dorsal root ganglion neurons was assessed alone, or in the presence of 100 nM GST-Nogo or in the presence of 4 μM Pep2, which was quantified from experiments as in (b) by the method described in the Example section. The means±s.e.m. calculated from eight determinations are shown. (e) is a graph displaying experimental data where AP-Nogo binding to dorsal root ganglion neurons was measured as a function of AP-Nogo concentration. This is one of six experiments with similar results. (f) is a graph summarizing the data from (e) replotted for Scatchard analysis. The apparent Kd for AP-Nogo binding to E12 chick dorsal root ganglion neurons is 3 nM. […]

- Ki ([2]; binding of 10 nM AP-Nogo, read-out: apparent Ki in the binding assay): 150 nM
Molecule: Pep2-41: 2-41 fragment of the 66 amino acid region of Nogo, acetylated and amidated at the termini (Ac-RIYKGVIQAIQKSDEGHPFRAYLESEVAISEELVQKYSNS-NH2)
- blockade of Nogo-induced growth cone collapse (in words) [1]: abolishes GST-Nogo-induced growth cone collapse

Molecule: Peptide 140: synthetic peptide of amino acids #1055-1094 of the human NogoA protein, acetylated and amidated at the termini (Ac-RIYKGVIQAIQKSDEGHPFRAYLESEVAISEELVQKYSNS-NH2; UniProt Q9NQC3 1055-1094, looked up, fragment)
- blockade of Nogo-induced growth cone collapse (in words) [1]: significantly blocks growth cone collapse

- reduction of binding of AP-Nogo-66 ([2]; 0.5 nM AP-Nogo-66, NgR-ecto conditioned medium, dorsal root ganglion neurons): 80%
B1: NgR-ecto: secreted fragment of amino acid residues 1-348 of the murine NgR, in HEK293T conditioned medium (protein)
chain: CPGACVCYNEPKVTTSCPQQGLQAVPTGIPASSQRIFLHGNRISHVPAASFQSCRNLTILWLHSNALARIDAAAFTGLTLLEQLDLSDNAQLHVVDPTTFHGLGHLHTLHLDRCGLRELGPGLFRGLAALQYLYLQDNNLQALPDNTFRDLGNLTHLFLHGNRIPSVPEHAFRGLHSLDRLLLHQNHVARVHPHAFRDLGRLMTLYLFANNLSMLPAEVLMPLRSLQYLRLNDNPWVCDCRARPLWAWLQKFRGSSSEVPCNLPQRLADRDLKRLAASDLEGCAVASGPFRPIQTSQLTDEELLSLPKCCQPDAADKASVLE
modifications: left off: small tags and cut ends
notes: secreted fragment of amino acid residues 1-348 of the murine NgR, in HEK293T conditioned medium
- blockade of Nogo-induced growth cone collapse (in words) [1]: prevents Nogo-66-induced growth cone collapse
- blockade of Nogo-induced growth cone collapse (in words) ([1]; listed as NgR ectodomain protein): blocked
- blockade of Nogo-induced growth cone collapse (in words) ([1]; listed as mNgR ectodomain protein): blocked

- blockade of AP-Nogo binding (in words) [2]: blocked; also recorded: displaced
B2: GST-Nogo: GST fusion protein of the 66 amino acid lumenal-extracellular fragment of Nogo-A, expressed in E. coli (protein)
chain: RIYKGVIQAIQKSDEGHPFRAYLESEVAISEELVQKYSNSALGHVNCTIKELRRLFLVDDLVDSLK
modifications: also: GST fusion protein
notes: GST fusion protein of the 66 amino acid lumenal-extracellular fragment of Nogo-A, expressed in E. coli
